# Assay results as given in US20060270591A1, “Androgen receptor coregulators” (priority 2002, published 2006).
# T1: PR (Homo sapiens, UniProt P06401)
# T1 construct: expressed in transfected cells; host or cells: DU145, PC-3
# T1 sequence (P06401 1-933): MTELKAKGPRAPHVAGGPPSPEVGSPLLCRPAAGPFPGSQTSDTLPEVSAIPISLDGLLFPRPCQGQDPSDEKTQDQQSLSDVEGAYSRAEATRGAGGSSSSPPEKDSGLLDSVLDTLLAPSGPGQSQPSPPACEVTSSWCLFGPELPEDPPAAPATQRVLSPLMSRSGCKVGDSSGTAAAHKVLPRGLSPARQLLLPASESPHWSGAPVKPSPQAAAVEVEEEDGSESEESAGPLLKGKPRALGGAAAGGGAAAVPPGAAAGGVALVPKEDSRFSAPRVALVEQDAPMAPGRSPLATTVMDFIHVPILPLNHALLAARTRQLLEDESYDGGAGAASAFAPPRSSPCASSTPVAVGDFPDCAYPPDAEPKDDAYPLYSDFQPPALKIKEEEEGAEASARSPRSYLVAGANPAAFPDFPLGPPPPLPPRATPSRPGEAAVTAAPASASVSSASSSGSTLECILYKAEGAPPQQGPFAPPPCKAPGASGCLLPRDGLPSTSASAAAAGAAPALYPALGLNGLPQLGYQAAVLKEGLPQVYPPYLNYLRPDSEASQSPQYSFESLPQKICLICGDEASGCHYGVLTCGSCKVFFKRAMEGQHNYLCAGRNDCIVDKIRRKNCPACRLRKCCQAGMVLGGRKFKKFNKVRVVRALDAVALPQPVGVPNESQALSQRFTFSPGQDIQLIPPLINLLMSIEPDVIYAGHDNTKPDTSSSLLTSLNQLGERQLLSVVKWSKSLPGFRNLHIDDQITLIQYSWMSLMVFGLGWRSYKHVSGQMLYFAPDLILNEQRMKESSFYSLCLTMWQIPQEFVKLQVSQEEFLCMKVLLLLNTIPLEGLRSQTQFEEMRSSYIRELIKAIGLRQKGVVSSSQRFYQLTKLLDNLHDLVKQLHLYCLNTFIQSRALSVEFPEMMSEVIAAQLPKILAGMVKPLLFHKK
# B1: C′-ARA54: C-terminal region (amino acids 361-474) of ARA54 (protein)
# chain: RNEYLQADEANKRLLDQRYGKRVIQKALEEMESKEWLEKNSKSCPCCGTPIEKLDGCNKMTCTGCMQYFCWICMGSLSRANPYKHFNDPGSPCFNRLFYAVDVDDDIWEDEVED
# modifications: Homo sapien
# notes: C-terminal region (amino acids 361-474) of ARA54
# B2: ARA54: 54 kDa protein that interacts with AR in an androgen-dependent manner; AR coactivator (protein)
# chain: MSSEDREAQEDELLALASIYDGDEFRKAESVQGGETRIYLDLPQNFKIFVSGNSNECLQNSGFEYTICFLPPLVLNFELPPDYPSSSPPSFTLSGKWLSPTQLSALCKHLDNLWEEHRGSVVLFAWMQFLKEETLAYLNIVSPFELKIGSQKKVQRRTAQASPNTELDFGGAAGSDVDQEEIVDERAVQDVESLSNLIQEILDFDQAQQIKCFNSKLFLCSICFCEKLGSECMYFLECRHVYCKACLKDYFEIQIRDGQVQCLNCPEPKCPSVATPGQVKELVEAELFARYDRLLLQSSLDLMADVVYCPRPCCQLPVMQEPGCTMGICSSCNFAFCTLCRLTYHGVSPCKVTAEKLMDLRNEYLQADEANKRLLDQRYGKRVIQKALEEMESKEWLEKNSKSCPCCGTPIEKLDGCNKMTCTGCMQYFCWICMGSLSRANPYKHFNDPGSPCFNRLFYAVDVDDDIWEDEVED
# Columns and labels:
# [1] = biological target: T1, PR; test: PR transactivation reporter gene assay (Example 2); format: cell-based
# Procedure: 12. […] PC-3 (A) or DU145 (B) cells were transfected with MMTV-CAT (2.5 μg), steroid receptor expression plasmid (AR, PR, or GR; 1.0 μg for PC-3 and 0.75 μg for DU145), and pSG5-C′-ARA54 (C′) or pSG5-mt-ARA54 (mt) (8.0 μg for PC-3 and 6.75 μg for DU145), with (for DU145) or without (for PC-3) pSG5-fl-ARA54 (2.25 μg). The total amount of DNA was adjusted to 12.5-13.25 μg with pSG5 for each transfection. […] The CAT activity is presented relative to that of vector alone with cognate ligand in each panel (black bars; set as 100%). Values represent the mean±SD of at least three determinations.
# (§1) 394. The human prostate cancer cell lines, LNCaP, PC-3, and DU145, were maintained in Dulbecco's minimum essential medium (DMEM) containing 5% fetal calf serum (FCS). Transfections using the calcium phosphate precipitation method and chloramphenicol acetyltransferase (CAT) and luciferase (Luc) assays were performed as previously described (Miyamoto et al. (1998) Proc. Natl. Acad. Sci. U.S.A. 95, 7379-7384; Yeh et al. (1999) Endocrine 11, 195-202; Miyamoto et al. (1998) Proc. Natl. Acad. Sci. U.S.A. 95, 11083-11088). Briefly, 1-4×10^5 cells were plated on 35-mm or 60-mm dishes 24 h before adding the precipitation mix containing a CAT or Luc reporter gene and a β-galactosidase expression plasmid (pCMV-β-gal) as an internal control for normalization of transfection efficiency. The medium was changed to phenol-red-free DMEM with 5% charcoal-stripped FCS 1 h before transfection. In each experiment, the total amount of transfected DNA per dish was maintained as a constant by addition of empty expression vector (pSG5 or pVP16, as appropriate). […] The cells were then harvested and whole cell extracts were used for CAT or Luc assay. The CAT activity was quantitated with a PhosphorImager (Molecular Dynamics). The Luc assay was determined using a Dual-Luciferase Reporter Assay System (Promega) and luminometer.
# [2] = system: AR; test: AR transactivation reporter gene assay (CAT/Luc) in prostate cancer cell lines (Example 2); format: cell-based, human
# Procedure: as §1
# Sequence of AR (P10275 whole entry): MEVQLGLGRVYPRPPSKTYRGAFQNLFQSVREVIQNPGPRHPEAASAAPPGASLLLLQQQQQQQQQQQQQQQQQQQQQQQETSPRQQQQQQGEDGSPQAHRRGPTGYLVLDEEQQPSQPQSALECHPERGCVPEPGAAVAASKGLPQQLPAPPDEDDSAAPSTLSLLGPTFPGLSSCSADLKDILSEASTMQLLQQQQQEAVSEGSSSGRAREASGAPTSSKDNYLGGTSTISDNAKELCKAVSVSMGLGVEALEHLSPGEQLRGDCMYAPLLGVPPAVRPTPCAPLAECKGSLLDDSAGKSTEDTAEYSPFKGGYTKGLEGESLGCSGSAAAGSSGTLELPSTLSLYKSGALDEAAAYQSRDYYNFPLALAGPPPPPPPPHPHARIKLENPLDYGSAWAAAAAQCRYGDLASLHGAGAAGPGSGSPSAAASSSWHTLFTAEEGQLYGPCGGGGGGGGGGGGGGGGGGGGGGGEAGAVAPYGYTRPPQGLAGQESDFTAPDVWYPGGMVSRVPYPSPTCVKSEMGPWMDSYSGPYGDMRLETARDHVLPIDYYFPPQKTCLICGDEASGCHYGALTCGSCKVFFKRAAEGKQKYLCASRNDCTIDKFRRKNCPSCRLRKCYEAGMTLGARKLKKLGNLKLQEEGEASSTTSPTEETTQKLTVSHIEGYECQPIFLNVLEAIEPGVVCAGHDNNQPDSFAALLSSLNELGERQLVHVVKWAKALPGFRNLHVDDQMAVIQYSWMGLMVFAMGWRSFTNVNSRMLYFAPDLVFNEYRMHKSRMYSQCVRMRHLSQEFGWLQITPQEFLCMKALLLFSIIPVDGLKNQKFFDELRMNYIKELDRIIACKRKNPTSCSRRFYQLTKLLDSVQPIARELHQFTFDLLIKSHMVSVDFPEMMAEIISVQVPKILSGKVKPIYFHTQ
Molecule,effect on fl-ARA54-induced PR transcription ([1]; DU145 cells),"effect on PR-mediated transactivation ([1]; PC-3 cell line, presence of P)","effect on ARA55-, ARA70-, Rb-, or SRC-1-enhanced AR transactivation ([2]; DU145 cells, 1 nM DHT)","effect on DHT- or HF-mediated AR transcription activity ([2]; LNCaP, PC-3, DU145 cells, 1 nM DHT or 1 μM HF)","induction of PR transcription ([1]; DU145 cells, cotransfected with PR)"
B1,little effect,only a marginal effect,only marginal or slight suppressive effects,suppresses DHT- or HF-mediated AR transcription activity,
B2,,,,,2.9 fold
